Target: vimentin 2.tag (epitope-tagged Xenopus laevis vimentin 2, 57 kD) (X. laevis)
Test: fractionation of oocytes into soluble and insoluble fractions

stoichiometry N: 4
Substance: vimentin 2.tag (epitope-tagged Xenopus laevis vimentin 2, 57 kD) (natural protein)

Source: PMC2289705
